Results published in patent US9290800.

Molecular target: T1, M2Y DNA polymerase-His10 (polymerase A) (Bacteriophage M2Y) (UniProt P19894)
T1 sequence: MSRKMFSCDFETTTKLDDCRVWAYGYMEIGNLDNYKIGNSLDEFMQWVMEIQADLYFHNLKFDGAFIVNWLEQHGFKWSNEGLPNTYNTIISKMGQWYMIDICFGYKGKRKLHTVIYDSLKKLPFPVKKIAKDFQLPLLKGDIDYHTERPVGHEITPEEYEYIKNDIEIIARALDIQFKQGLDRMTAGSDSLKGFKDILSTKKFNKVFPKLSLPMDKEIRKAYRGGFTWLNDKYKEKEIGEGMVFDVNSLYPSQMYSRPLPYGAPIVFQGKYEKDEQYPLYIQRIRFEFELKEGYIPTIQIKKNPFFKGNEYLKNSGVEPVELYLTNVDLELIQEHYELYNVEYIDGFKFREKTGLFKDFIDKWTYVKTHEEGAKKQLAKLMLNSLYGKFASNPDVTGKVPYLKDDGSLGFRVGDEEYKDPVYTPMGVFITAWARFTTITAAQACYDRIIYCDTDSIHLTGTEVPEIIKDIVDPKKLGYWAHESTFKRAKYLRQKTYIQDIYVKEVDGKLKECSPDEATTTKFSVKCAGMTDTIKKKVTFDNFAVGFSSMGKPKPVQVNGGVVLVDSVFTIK
Details: average amplification per round over two rounds

## FMR1 genomic fragment SMRTbell
  activity: 177 fold
